T1: DLC1 RhoGAP domain (residues 1074-1283), His6-tagged (human, UniProt Q96QB1 1074-1283)
T1 construct: RhoGAP domain of human DLC1A, residues 1074-1283 of UniProt Q96QB1 isoform 2; Vector pET28-MHL; also called DLC1A; His6-DLC1; source: E. coli BL21(DE3) or Rosetta(DE3), purified (Ni-NTA, SEC)
T1 sequence (looked up): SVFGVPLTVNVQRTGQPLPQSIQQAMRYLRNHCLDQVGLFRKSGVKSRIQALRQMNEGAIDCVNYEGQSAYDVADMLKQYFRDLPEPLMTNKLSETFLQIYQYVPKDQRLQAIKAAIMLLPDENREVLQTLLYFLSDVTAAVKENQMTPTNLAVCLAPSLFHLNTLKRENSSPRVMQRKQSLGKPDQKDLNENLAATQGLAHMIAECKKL

B1: p120RasGAP SH3 domain (residues 281-341) (domain or fragment, human, UniProt P20936 281-341, looked up)
chain: RRRVRAILPYTKVPDTDEISFLKGDMFIVHNELEDGWMWVTNLRTDEQGLIVEDLVEEVGR
notes: SH3 domain of human p120RasGAP, residues 281-341 of UniProt P20936; Vector pGEX-6p1; also called SH3 WT; RASA1; source: E. coli BL21(DE3) or Rosetta(DE3), purified (glutathione Sepharose, PreScission cleavage on beads, SEC)

Key:
[1] = target: DLC1 RhoGAP (Homo sapiens) (UniProt Q96QB1); assay: ITC; conditions: cited from earlier work
Sequence of DLC1 RhoGAP (Homo sapiens) (Q96QB1 1075-1287): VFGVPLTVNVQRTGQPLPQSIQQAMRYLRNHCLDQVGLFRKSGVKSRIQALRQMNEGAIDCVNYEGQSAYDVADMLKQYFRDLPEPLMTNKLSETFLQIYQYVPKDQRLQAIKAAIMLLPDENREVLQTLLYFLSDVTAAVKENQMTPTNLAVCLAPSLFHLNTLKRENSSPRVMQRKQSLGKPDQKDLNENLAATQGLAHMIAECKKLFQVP

[2] = target: DLC1 RhoGAP (Homo sapiens) (UniProt Q96QB1); assay: kinetics; conditions: cited from earlier work
[3] = target: T1, DLC1 RhoGAP domain (residues …); assay: crystal structure; copurified complex of DLC1 RhoGAP with p120RasGAP SH3 at 18 mg/ml; 0.2 M magnesium nitrate, 16.5% PEG 3350, hanging drops, ambient temperature (~22 °C); 3.2 Å, four copies of the complex in the asymmetric unit; conditions: both partners purified

Row | Molecule | Kd [1] | Ki [2] | binding result [3]
1 | p120RasGAP SH3 (from UniProt P20936) | 600 nM | 600 nM | –
2 | B1 | – | – | binds

Source: article PMC9378701, “SH3 domain regulation of RhoGAP activity: Crosstalk between p120RasGAP and DLC1 RhoGAP” (Nature Communications, 2022)
